The results in this text go back to the supplement of paper PMC11316812.

± gives the standard deviation of the averaged measurements.

Data set [1] has as its system hTERT-HMEC. Put plainly: percentage of EdU-negative (G0-arrested) nuclei per well, 72 h; higher = more G0 arrest. Particulars: reference: sequence is the full UniProt precursor, the tested protein was the secreted form or ectodomain.
Data set [2] deals with MCF7. The description is as above. Particulars: reference: sequence is the full UniProt precursor, the tested protein was the secreted form or ectodomain.
Where [3] appears, read: protein concentration 0.0225 µM.
Setting [4] is: protein concentration 0.02588 µM.
Setting [5] is: protein concentration 0.2588 µM.
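Further: secreted proteins added to cultured cells, EdU pulse at the end, nuclei found by Hoechst imaging, EdU status from nuclear versus surrounding ring intensity ratio, PBS as neutral control.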

Regarding “MEPFTNDRLQLPRNMIENSMFEEEPDVVDLAKEPCLHPLEPDEVEYEPRGSRLLVRGLGEHEMEEDEEDYESSAKLLGMSFMNRSSGLRNSATGYRQSPDGACSVPSARTMVVCAFVIVVAVSVIMVIYLLPRCTFTKEGCHKKNQSIGLIQPFATNGKLFPWAQIRLPTAVVPLRYELSLHPNLTSMTFRGSVTISVQALQVTWNIILHSTGHNISRVTFMSAVSSQEKQAEILEYAYHGQIAIVAPEALLAGHNYTLKIEYSANISSSYYGFYGFSYTDESNEKKYFAATQFEPLAARSAFPCFDEPAFKATFIIKIIRDEQYTALSNMPKKSSVVLDDGLVQDEFSESVKMSTYLVAFIVGEMKNLSQDVNGTLVSIYAVPEKIGQVHYALETTVKLLEFFQNYFEIQYPLKKLDLVAIPDFEAGAMENWGLLTFREETLLYDSNTSSMADRKLVTKIIAHELAHQWFGNLVTMKWWNDLWLNEGFATFMEYFSLEKIFKELSSYEDFLDARFKTMKKDSLNSSHPISSSVQSSEQIEEMFDSLSYFKGSSLLLMLKTYLSEDVFQHAVVLYLHNHSYASIQSDDLWDSFNEVTNQTLDVKRMMKTWTLQKGFPLVTVQKKGKELFIQQERFFLNMKPEIQPSDTSYLWHIPLSYVTEGRNYSKYQSVSLLDKKSGVINLTEEVLWVKVNINMNGYYIVHYADDDWEALIHQLKINPYVLSDKDRANLINNIFELAGLGKVPLKRAFDLINYLGNENHTAPITEALFQTDLIYNLLEKLGYMDLASRLVTRVFKLLQNQIQQQTWTDEGTPSMRELRSALLEFACTHNLGNCSTTAMKLFDDWMASNGTQSLPTDVMTTVFKVGAKTDKGWSFLLGKYISIGSEAEKNKILEALASSEDVRKLYWLMKSSLNGDNFRTQKLSFIIRTVGRHFPGHLLAWDFVKENWNKLVQKFPLGSYTIQNIVAGSTYLFSTKTHLSEVQAFFENQSEATFRLRCVQEALEVIQLNIQWMEKNLKSLTWWL [Q9UIQ6]”, the “percentage of EdU-negative” value was determined as 4.48 ± 0.24% in data set [1] (setting [3]), 11.1 ± 0.58% in data set [1] (protein concentration 0.225 µM), 26.9 ± 1.8% in data set [2] (setting [3]) and 29.26 ± 0.17% in data set [2] (protein concentration 0.225 µM).

“MEPLRLLILLFVTELSGAHNTTVFQGVAGQSLQVSCPYDSMKHWGRRKAWCRQLGEKGPCQRVVSTHNLWLLSFLRRWNGSTAITDDTLGGTLTITLRNLQPHDAGLYQCQSLHGSEADTLRKVLVEVLADPLDHRDAGDLWFPGESESFEDAHVEHSISRSLLEGEIPFPPTSILLLLACIFLIKILAASALWAAAWHGQKPGTHPPSELDCGHDPGYQLQTLPGLRDT [Q9NZC2]”: the “percentage of EdU-negative” value in data set [1] (setting [3]) is 5.63 ± 0.64%; in data set [1] (protein concentration 0.225 µM), 7.25 ± 1.5%; in data set [2] (setting [3]) it was 23.6 ± 1.7%; in data set [2] (protein concentration 0.225 µM), 29.3 ± 2.9%.

In the case of “MEPPGDWGPPPWRSTPKTDVLRLVLYLTFLGAPCYAPALPSCKEDEYPVGSECCPKCSPGYRVKEACGELTGTVCEPCPPGTYIAHLNGLSKCLQCQMCDPAMGLRASRNCSRTENAVCGCSPGHFCIVQDGDHCAACRAYATSSPGQRVQKGGTESQDTLCQNCPPGTFSPNGTLEECQHQTKCSWLVTKAGAGTSSSHWVWWFLSGSLVIVIVCSTVGLIICVKRRKPRGDVVKVIVSVQRKRQEAEGEATVIEALQAPPDVTTVAVEETIPSFTGRSPNH [F6Q0M4]”, the “percentage of EdU-negative” value in data set [1] (setting [4]) amounted to 5.28 ± 1.9%; in data set [1] (setting [5]) it was 6.34 ± 0.056%; in data set [2] (setting [4]) it was 25.05 ± 0.09%; in data set [2] (setting [5]), 27.5 ± 1.3%.

For “MEPQLGPEAAALRPGWLALLLWVSALSCSFSLPASSLSSLVPQVRTSYNFGRTFLGLDKCNACIGTSICKKFFKEEIRSDNWLASHLGLPPDSLLSYPANYSDDSKIWRPVEIFRLVSKYQNEISDRRICASASAPKTCSIERVLRKTERFQKWLQAKRLTPDLVQGLASPLLRCPSQRLLDRVVRRYAEVADAGSIFMDHFTDRDKLRLLYTLAVNSHPILLQIFPGAEGWPLPKYLGSCGRFLVSTSTRPLQEFYDAPPDQAADLAYQLLGVLESLRSNDLNYFFYFTHIDAGMFGVFNNGHLFIRDASAVGVIDKQEGSQEANRAGENKDIFSCLVSGCQAQLPSCESISEKQSLVLVCQKLLPRLLQGRFPSPVQDDIDSILVQCGDSIRPDPEVLGAASQLKDILRPLRTCDSRFAYRYPDCKYNDKF [Q9H7Y0]”, the “percentage of EdU-negative” value in data set [1] (setting [3]) is 5.59 ± 0.064%; in data set [1] (protein concentration 0.225 µM), 5.31 ± 0.38%; in data set [2] (setting [3]), 25.8 ± 2.1%; in data set [2] (protein concentration 0.225 µM), 25.3 ± 2%.

Turning to “MEQWDHFHNQQEDTDSCSESVKFDARSMTALLPPNPKNSPSLQEKLKSFKAALIALYLLVFAVLIPLIGIVAAQLLKWETKNCSVSSTNANDITQSLTGKGNDSEEEMRFQEVFMEHMSNMEKRIQHILDMEANLMDTEHFQNFSMTTDQRFNDILLQLSTLFSSVQGHGNAIDEISKSLISLNTTLLDLQLNIENLNGKIQENTFKQQEEISKLEERVYNVSAEIMAMKEEQVHLEQEIKGEVKVLNNITNDLRLKDWEHSQTLRNITLIQGPPGPPGEKGDRGPTGESGPRGFPGPIGPPGLKGDRGAIGFPGSRGLPGYAGRPGNSGPKGQKGEKGSGNTLTPFTKVRLVGGSGPHEGRVEILHSGQWGTICDDRWEVRVGQVVCRSLGYPGVQAVHKAAHFGQGTGPIWLNEVFCFGRESSIEECKIRQWGTRACSHSEDAGVTCTL”, the “percentage of EdU-negative” value turned out to be 5.16 ± 0.032% in data set [1] (setting [3]), 5.23 ± 1.7% in data set [1] (protein concentration 0.225 µM), 27.3 ± 1.6% in data set [2] (setting [3]) and 25.4 ± 1.7% in data set [2] (protein concentration 0.225 µM).
